Series [1] concerns LdCsm effector complex, wild type (Csm1/Cas10-Csm2-Csm3-Csm4-Csm5) (Lactobacillus delbrueckii subsp. bulgaricus ND04). In words: EMSA. The note with it: 5 nM 5'-32P S10-60 ssDNA in cleavage buffer (composition not in material; cOA assay buffer is 50 mM Tris-Cl pH 6.8 …). For orientation: A gel shift assay detects complexes by their altered migration in electrophoresis.
Series [2] concerns LdCsm Csm3D34A (Lactobacillus delbrueckii subsp. bulgaricus ND04). Kind of series: EMSA. Particulars: 100 nM effector, 500 nM PTR; 5 nM 5'-32P S10-60 ssDNA in cleavage buffer (composition not in material; cOA assay buffer is 50 mM Tris-Cl pH 6.8 …).

The values that follow come from publication PMC7214462.

Take “ACTATAGGGAGAATAGAATGCCCCCATTATACAATATCTACGTTTTAGATGACCCCCCCC / ACGAGAACUUCAAAGCUUAGAUACCCUGGAGG / AUAGAAUGCCCCCAUUAUACAAUAUCUACGUUUUAGAUGAAAAAAA [S10-60 ssDNA + S1 crRNA + S10 RNA (non-homologous)]”: the binding signal (relative to WT with non-homologous RNA) in series [1] (100 nM LdCsm, 400 nM S10 RNA, little binding, reference) amounted to 1. For “ACTATAGGGAGAATAGAATGCCCCCATTATACAATATCTACGTTTTAGATGACCCCCCCC / ACGAGAACUUCAAAGCUUAGAUACCCUGGAGG / GGUGUUAAGUCUGGUUUCCCUCCAGGGUAUCUAAGCUUUGAAA [S10-60 ssDNA + S1 crRNA + CTR+1]”, the binding signal (% of full activity) in series [1] (100 nM LdCsm, 500 nM CTR+1) was found to be 90. “ACTATAGGGAGAATAGAATGCCCCCATTATACAATATCTACGTTTTAGATGACCCCCCCC / ACGAGAACUUCAAAGCUUAGAUACCCUGGAGG / GGUGUUAAGUCUGGUUUCCCUCCAGGGUAUCUAAGCUUUGAAAAAAAA [S10-60 ssDNA + S1 crRNA + CTR+6]” yielded a binding signal (fraction of CTR+6 complex) in series [1] (100 nM LdCsm, 500 nM CTR+6, reference) of 1. “ACTATAGGGAGAATAGAATGCCCCCATTATACAATATCTACGTTTTAGATGACCCCCCCC / ACGAGAACUUCAAAGCUUAGAUACCCUGGAGG / GGUGUUAAGUCUGGUUUCCCUCCAGGGUAUCUAAGCUUUGAAG [S10-60 ssDNA + S1 crRNA + NTR+1]” came in with a binding signal (% of full activity) in series [1] (100 nM LdCsm, 500 nM NTR+1) of 70. “ACTATAGGGAGAATAGAATGCCCCCATTATACAATATCTACGTTTTAGATGACCCCCCCC / ACGAGAACUUCAAAGCUUAGAUACCCUGGAGG / UGUUAAGUCUGGUUUCCCUCCAGGGUAUCUAAGCUUUGAA [S10-60 ssDNA + S1 crRNA + PTR (S1-40)]”: the binding signal (fold vs non-homologous RNA) in series [2] came to 3. For the same sequence, in series [1] (100 nM LdCsm, 500 nM PTR), the binding signal (% of CTR-LdCsm) turned out to be 55 and the binding signal (fold vs non-homologous RNA) came out at 2. With “ACTATAGGGAGAATAGAATGCCCCCATTATACAATATCTACGTTTTAGATGACCCCCCCC / ACGAGAACUUCAAAGCUUAGAUACCCUGGAGG / UGUUAAGUCUGGUUUCCCUCCAGGGUAUCUAAGCUUUGAAAAAAAA [S10-60 ssDNA + S1 crRNA + CTR (S1-46)]”, the binding signal in series [1] (25-100 nM effector, 500 nM CTR, reference) was 100 % of WT.
